# From article PMC5582869
# B1: human ZDHHC6 (WT), Myc-tagged [human] / human ZDHHC6 (WT), Myc-tagged [human] (parent)
# chain 1: MGTFCSVIKFENLQELKRLCHWGPIIALGVIAICSTMAMIDSVLWYWPLHTTGGSVNFIMLINWTVMILYNYFNAMFVGPGFVPLGWKPEISQDTMYLQYCKVCQAYKAPRSHHCRKCNRCVMKMDHHCPWINNCCGYQNHASFTLFLLLAPLGCIHAAFIFVMTMYTQLYHRLSFGWNTVKIDMSAARRDPLPIVPFGLAAFATTLFALGLALGTTIAVGMLFFIQMKIILRNKTSIESWIEEKAKDRIQYYQLDEVFVFPYDMGSRWRNFKQVFTWSGVPEGDGLEWPVREGCHQYSLTIEQLKQKADKRVRSVRYKVIEDYSGACCPLNKGIKTFFTSPCTEEPRIQLQKGEFILATRGLRYWLYGDKILDDSFIEGVSRIRGWFPRKCVEKCPCDAETDQAPEGEKKNR
# chain 2: B1 chain 1
# Variants of: B1
# Assay: co-immunoprecipitation (IP with myc antibodies, anti-GFP immunoblot, densitometry)
# Settings: HeLa cells transfected for 24 hr, n = 4, parent: 100, read off a plot
row,percent of parent,Variant
1,39 % of WT,chain 1 MGTFCSVIKFENLQELKRLCHWGPIIALGVIAICSTMAMIDSVLWYWPLHTTGGSVNFIMLINWTVMILYNYFNAMFVGPGFVPLGWKPEISQDTMYLQYCKVCQAYKAPRSHHCRKCNRCVMKMDHHCPWINNCCGYQNHASFTLFLLLAPLGCIHAAFIFVMTMYTQLYHRLSFGWNTVKIDMSAARRDPLPIVPFGLAAFATTLFALGLALGTTIAVGMLFFIQMKIILRNKTSIESWIEEKAKDRIQYYQLDEVFVFPYDMGSRWRNFKQVFTWSGVPEGDGLEWPVREGCHQYSLTIEQLKQKADKRVRSVRYKVIEDYSGAAAPLNKGIKTFFTSPATEEPRIQLQKGEFILATRGLRYWLYGDKILDDSFIEGVSRIRGWFPRKCVEKCPCDAETDQAPEGEKKNR [chain 1 C328A C329A C343A]
